Results on ten molecules are retold here after US20260098080A1, “A MODIFIED PROTEIN SCAFFOLD AND USE THEREOF” (EVOLVERITAS BIOTECHNOLÓGIAI KORLÁTOLT FELELOSSÉGU TÁRSASÁG, priority 2022, published 2026).

Where no end group is shown, it is not given here.

Assay [1] deals with T1, human MASP-2 (in normal human serum) (human, UniProt O00187 16-686). The assay is described as follows: cell-based or functional assay.
For assay [2], the target named is rat MASP-2 (in rat serum) (rat, UniProt Q9JJS8 20-685). Put plainly: cell-based or functional assay.
The target of assay [3] is T2, human MASP-2cf CCP1-CCP2-SP (human, UniProt O00187 298-686, limits assumed).
T2 construct: domain: CCP1-CCP2-SP; also called human MASP-2 catalytic fragment
The assay is described as follows: SPR, target immobilised. In general terms: In SPR one partner is held on a chip, and binding of the other changes the refractive index at the surface.

The target of assay [4] is T3, rat MASP-2cf CCP1-CCP2-SP (rat, UniProt Q9JJS8 298-685).
T3 construct: range 298-685; Mw 42309 Da; also called rat MASP-2 catalytic fragment
Put plainly: SPR, target immobilised.

Assay [5] has as its target T2, human MASP-2cf CCP1-CCP2-SP. The assay is described as follows: enzyme inhibition, tight-binding fit.
Assay [6] deals with T3, rat MASP-2cf CCP1-CCP2-SP. The assay is described as follows: enzyme inhibition, tight-binding fit.
Assay [7] deals with T1, human MASP-2 (in normal human serum). Put plainly: cell-based or functional assay. This is another data set of the same source.

Chain of rat MASP-2 (in rat serum) (Q9JJS8 20-685 limits assumed): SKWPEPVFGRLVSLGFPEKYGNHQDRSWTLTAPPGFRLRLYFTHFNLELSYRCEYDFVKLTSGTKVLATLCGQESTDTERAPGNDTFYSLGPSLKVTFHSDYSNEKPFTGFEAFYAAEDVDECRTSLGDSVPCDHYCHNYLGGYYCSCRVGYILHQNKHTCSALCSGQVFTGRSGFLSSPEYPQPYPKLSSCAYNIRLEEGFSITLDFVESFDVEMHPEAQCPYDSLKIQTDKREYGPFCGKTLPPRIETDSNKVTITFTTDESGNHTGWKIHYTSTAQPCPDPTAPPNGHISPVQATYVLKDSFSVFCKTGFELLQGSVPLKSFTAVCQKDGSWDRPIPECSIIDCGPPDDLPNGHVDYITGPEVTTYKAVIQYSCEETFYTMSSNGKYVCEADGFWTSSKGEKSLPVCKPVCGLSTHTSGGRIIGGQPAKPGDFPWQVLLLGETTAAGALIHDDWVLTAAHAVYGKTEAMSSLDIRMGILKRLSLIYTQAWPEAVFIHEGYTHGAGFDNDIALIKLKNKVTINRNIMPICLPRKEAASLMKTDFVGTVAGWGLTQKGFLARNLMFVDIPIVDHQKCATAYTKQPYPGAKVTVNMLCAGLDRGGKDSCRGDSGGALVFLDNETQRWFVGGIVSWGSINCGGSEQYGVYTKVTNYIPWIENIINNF
T1 sequence (O00187 16-686 limits assumed): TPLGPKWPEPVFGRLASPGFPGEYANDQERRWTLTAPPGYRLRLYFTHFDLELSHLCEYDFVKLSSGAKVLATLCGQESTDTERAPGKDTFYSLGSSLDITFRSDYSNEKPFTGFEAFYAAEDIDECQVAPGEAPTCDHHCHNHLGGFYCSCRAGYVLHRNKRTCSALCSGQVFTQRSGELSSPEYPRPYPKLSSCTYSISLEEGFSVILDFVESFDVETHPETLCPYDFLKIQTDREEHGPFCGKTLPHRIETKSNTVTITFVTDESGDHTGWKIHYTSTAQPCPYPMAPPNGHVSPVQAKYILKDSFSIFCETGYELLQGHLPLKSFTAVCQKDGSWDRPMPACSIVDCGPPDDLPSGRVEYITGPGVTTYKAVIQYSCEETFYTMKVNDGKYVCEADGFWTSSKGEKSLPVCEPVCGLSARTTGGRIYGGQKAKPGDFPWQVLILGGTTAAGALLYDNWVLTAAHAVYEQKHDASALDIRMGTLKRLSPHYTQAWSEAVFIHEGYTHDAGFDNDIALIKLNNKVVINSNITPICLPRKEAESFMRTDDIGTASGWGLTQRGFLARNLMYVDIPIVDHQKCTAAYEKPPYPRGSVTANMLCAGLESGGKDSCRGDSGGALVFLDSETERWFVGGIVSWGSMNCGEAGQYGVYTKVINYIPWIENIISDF
T3 sequence (Q9JJS8 other isoform, or with tags, fused parts or gaps limits assumed, form in doubt): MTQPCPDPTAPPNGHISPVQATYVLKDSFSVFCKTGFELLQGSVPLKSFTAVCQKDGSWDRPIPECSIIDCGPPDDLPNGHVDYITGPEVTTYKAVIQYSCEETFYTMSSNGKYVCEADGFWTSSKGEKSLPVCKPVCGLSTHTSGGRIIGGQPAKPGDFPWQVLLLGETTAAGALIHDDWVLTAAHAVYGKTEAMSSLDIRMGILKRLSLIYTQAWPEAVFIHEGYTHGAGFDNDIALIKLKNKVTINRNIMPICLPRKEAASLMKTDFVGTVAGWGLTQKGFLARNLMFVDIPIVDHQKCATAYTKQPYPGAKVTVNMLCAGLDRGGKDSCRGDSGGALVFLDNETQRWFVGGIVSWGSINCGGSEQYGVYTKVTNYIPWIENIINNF
T2 sequence (O00187 298-686 limits assumed): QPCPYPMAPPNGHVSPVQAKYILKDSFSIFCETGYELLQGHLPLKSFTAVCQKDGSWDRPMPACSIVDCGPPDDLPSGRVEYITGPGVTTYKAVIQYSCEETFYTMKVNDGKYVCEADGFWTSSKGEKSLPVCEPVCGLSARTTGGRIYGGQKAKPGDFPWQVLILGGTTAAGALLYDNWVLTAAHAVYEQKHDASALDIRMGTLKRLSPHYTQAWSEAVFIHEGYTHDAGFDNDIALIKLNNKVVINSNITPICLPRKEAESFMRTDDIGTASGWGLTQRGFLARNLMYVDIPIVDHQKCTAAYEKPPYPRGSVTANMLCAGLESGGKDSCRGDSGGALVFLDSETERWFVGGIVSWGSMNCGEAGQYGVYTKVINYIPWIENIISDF

B1: EVO22 (designed binder)
chain: KPDFCFLENDPGPCRALKRRYFYNNQTKQCERFYYGGCLGNMNNFVTLEECKNICEDG
modifications: not fully specified; cysteine pairing not given here
notes: Modified TFPI-D2 Kunitz domain; made as m1
A word on the Kd: it is a measure of binding affinity in units of concentration. The low end stands for tighter binding, the high end for weaker binding. Broadly, the koff is the first-order rate constant of dissociation. For orientation: kon means a measure of how fast the partners come together. Broadly, the Ki is the dissociation constant of the complex between target and ligand, obtained from inhibition or displacement. Lower therefore signals tighter binding. Take B1: in assay [1], the “IC50, lectin pathway C4 deposition, human serum” value (from here on “IC50 … human serum”) worked out at 4100 pM and the “Relative potency, lectin pathway, human serum” value (shortened to “Relative potency … human serum”) worked out at 33.4 fold vs EVO2. Moreover, in assay [2], the “IC50, lectin pathway C4 deposition, rat serum” value (from here on “IC50 … rat serum”) came out at 9900 pM and the “Relative potency, lectin pathway, rat serum” value (“Relative potency … rat serum” for short) is 10.8 fold vs EVO2. Moreover, in assay [3], binding was put at a Kd of 137 pM, the Relative affinity is 13.1 fold vs EVO2, the koff stood at 0.000314 s⁻¹ and the kon was found to be 2.3e+06 M⁻¹ s⁻¹. In assay [4], this molecule came in with a Kd of 229 pM, a Relative affinity of 15.9 fold vs EVO2, an off-rate constant (koff) of 0.000256 s⁻¹ and a kon of 1.12e+06 M⁻¹ s⁻¹. In assay [5], this molecule showed a Ki of 150 pM. In assay [6], this molecule had a Ki of 310 pM.

B2: EVO211a (designed binder)
chain: KPDFCFLEEDPGWCRALKRRYFYNNQTKQCERFGYGGCFGNMNNFVTLEECKNICEDG
Turning to B2, the “Relative potency (relative human lectin pathway inhibitory efficiency compared to EVO2)” value in assay [7] is 13.5 fold relative to EVO2. In assay [1], the “IC50 … human serum” value amounted to 9100 pM and the “Relative potency … human serum” value is 15.2 fold vs EVO2. In assay [2], the “IC50 … rat serum” value came out at 30600 pM and the “Relative potency … rat serum” value was found to be 3.5 fold vs EVO2.

B3: EVO224 (designed binder)
chain: KPDFCFLENDPGVCRALAVRYFYNNQTKQCERFYYGGCLGNMNNFVTLEECKNICEDG
modifications: not fully specified; cysteine pairing not given here
notes: as for B1
Consider B3, for which, in assay [1], the “IC50 … human serum” value is 30900 pM and the “Relative potency … human serum” value worked out at 4.5 fold vs EVO2. In addition, in assay [2], the “IC50 … rat serum” value was 29600 pM and the “Relative potency … rat serum” value stood at 3.6 fold vs EVO2. Further, in assay [3], binding was put at a Kd of 561 pM, the Relative affinity amounted to 3.2 fold vs EVO2, the koff is 0.000617 s⁻¹ and the kon is 1.1e+06 M⁻¹ s⁻¹. In assay [4], this molecule returned a Kd of 219 pM, a Relative affinity of 16.6 fold vs EVO2, a koff of 0.000184 s⁻¹ and a kon of 839000 M⁻¹ s⁻¹. Besides, in assay [5], the inhibition constant (Ki) is 1130 pM. This molecule displayed a Ki in assay [6] of 140 pM.

B4: EVO223 (designed binder)
chain: KPDFCFLENDPGPCRAAAVRYFYNNQTKQCERFYYGGCLGNMNNFVTLEECKNICEDG
notes: as for B1
Consider B4, for which, in assay [1], the “IC50 … human serum” value was 9900 pM and the “Relative potency … human serum” value amounted to 14 fold vs EVO2. Further, in assay [2], the “IC50 … rat serum” value was determined as 12000 pM and the “Relative potency … rat serum” value was 8.9 fold vs EVO2. In assay [3], binding was put at a Kd of 54 pM, the Relative affinity was 33.1 fold vs EVO2, the koff worked out at 4.77e-05 s⁻¹ and the kon turned out to be 882000 M⁻¹ s⁻¹. In assay [4], this molecule gave a Kd of 108 pM, a Relative affinity of 33.6 fold vs EVO2, a koff of 7.53e-05 s⁻¹ and a kon of 696000 M⁻¹ s⁻¹. Further, the affinity in assay [6] corresponds to a Ki of 90 pM.

B5: EVO2 (designed binder)
chain: KPDFCFLEEDPGPCRAVKRRYFYNNQTKQCERFKYGGCLGNMNNFETLEECKNICEDG
modifications: not fully specified; ends and bridges not checked
notes: Modified Kunitz domain TFPI-D2 of human TFPI-1; recombinant from E. coli, freed from a His6-S100A4 fusion by TEV protease; also called TFMI-2b
For the molecule B5, in assay [1], the “IC50 … human serum” value was found to be 138000 pM and the “Relative potency … human serum” value was 1 fold vs EVO2. For the same molecule, in assay [2], the “IC50 … rat serum” value came out at 106000 pM and the “Relative potency … rat serum” value turned out to be 1 fold vs EVO2. In assay [3], this molecule gave a Kd of 1790 pM, a Relative affinity of 1 fold vs EVO2, a koff of 0.0014 s⁻¹ and a kon of 809000 M⁻¹ s⁻¹. Moreover, in assay [4], the Kd came out at 3630 pM, the Relative affinity was 1 fold vs EVO2, the koff came to 0.00107 s⁻¹ and the kon was determined as 310000 M⁻¹ s⁻¹. This molecule also displayed a Ki in assay [5] of 650 pM. The molecule also gave a Ki in assay [6] of 240 pM.

B6: EVO221 (designed binder)
chain: KPDFCFLENDPGVCRAAAVRYFYNNQTKQCERFYYGGCLGNMNNFVTLEECKNICEDG
modifications: not fully specified; cysteine pairing not given here
notes: as for B1
On to B6, for which the “Relative potency (relative human lectin pathway inhibitory efficiency compared to EVO2)” value in assay [7] was 10.8 fold relative to EVO2. In assay [1], the “IC50 … human serum” value was found to be 12700 pM and the “Relative potency … human serum” value came to 10.9 fold vs EVO2. Also, in assay [2], the “IC50 … rat serum” value worked out at 11000 pM and the “Relative potency … rat serum” value turned out to be 9.7 fold vs EVO2. Also, in assay [3], the Kd was determined as 127 pM, the Relative affinity was determined as 14.1 fold vs EVO2, the off-rate constant (koff) worked out at 0.000131 s⁻¹ and the association rate constant (kon) turned out to be 1.03e+06 M⁻¹ s⁻¹. Besides, in assay [4], the Kd was determined as 170 pM, the Relative affinity is 21.4 fold vs EVO2, the koff was found to be 0.000113 s⁻¹ and the kon is 664000 M⁻¹ s⁻¹. Moreover, affinity in assay [5] was put at a Ki of 190 pM. Besides, in assay [6], the inhibitory constant (Ki) is 100 pM.

B7: EVO222 (designed binder)
chain: KPDFCFLENDPGLCRAAAVRYFYNNQTKQCERFYYGGCLGNMNNFVTLEECKNICEDG
modifications: not fully specified; cysteine pairing not given here
notes: as for B1
Turning to B7, in assay [1], the “IC50 … human serum” value was 9800 pM and the “Relative potency … human serum” value was 14.1 fold vs EVO2. For the same molecule, in assay [2], the “IC50 … rat serum” value was determined as 24200 pM and the “Relative potency … rat serum” value turned out to be 8.9 fold vs EVO2. In assay [3], this molecule showed a Relative affinity of 40 fold vs EVO2, a koff of 4.26e-05 s⁻¹ and a kon of 954000 M⁻¹ s⁻¹. Further, in assay [4], the Kd is 566 pM, the Relative affinity came out at 6.4 fold vs EVO2, the koff was 0.000262 s⁻¹ and the kon was 463000 M⁻¹ s⁻¹. The inhibition constant (Ki) in assay [5] came to 100 pM. The Ki in assay [6] came out at 270 pM.

B8: EVO21c (designed binder)
chain: KPDFCFLEEDPGPCRALKRRYFYNNQTKQCERFGYGGCFGNMNNFVTLEECKNICEDG
modifications: not fully specified; cysteine pairing not given here
notes: as for B1
For B8, the “Relative potency (relative human lectin pathway inhibitory efficiency compared to EVO2)” value in assay [7] was 22.3 fold relative to EVO2. Moreover, in assay [1], the “IC50 … human serum” value came out at 6200 pM and the “Relative potency … human serum” value is 22.4 fold vs EVO2. Moreover, in assay [2], the “IC50 … rat serum” value was determined as 12400 pM and the “Relative potency … rat serum” value came to 8.5 fold vs EVO2. The molecule further came in with a Ki in assay [5] of 65 pM. This molecule showed a Ki in assay [6] of 7 pM.

B9: EVO25 (designed binder)
chain: KPDFCFLENDPGPCRALKRRYFYNNQTKQCERFYYGGCFGNMNNFETLEECKNICEDG
modifications: not fully specified; cysteine pairing not given here
notes: as for B1
As to B9, in assay [1], the “IC50 … human serum” value was determined as 5600 pM and the “Relative potency … human serum” value is 24.5 fold vs EVO2. Besides, in assay [2], the “IC50 … rat serum” value turned out to be 15000 pM and the “Relative potency … rat serum” value was found to be 7.1 fold vs EVO2. Moreover, in assay [3], binding was put at a Kd of 203 pM, the Relative affinity is 8.8 fold vs EVO2, the koff is 0.000438 s⁻¹ and the kon stood at 2.16e+06 M⁻¹ s⁻¹. In assay [4], this molecule displayed a Kd of 787 pM, a Relative affinity of 4.6 fold vs EVO2, a koff of 0.000826 s⁻¹ and a kon of 1.05e+06 M⁻¹ s⁻¹. Further, the Ki in assay [6] came out at 900 pM.

B10: EVO21a (designed binder)
chain: KPDFCFLENDPGPCRAVKRRYFYNNQTKQCERFGYGGCLGNMNNFVTLEECKNICEDG
modifications: not fully specified; cysteine pairing not given here
notes: as for B1
Turning to B10, the “Relative potency (relative human lectin pathway inhibitory efficiency compared to EVO2)” value in assay [7] is 6.4 fold relative to EVO2. For the same molecule, in assay [1], the “IC50 … human serum” value was 21400 pM and the “Relative potency … human serum” value was 6.5 fold vs EVO2. Further, in assay [2], the “IC50 … rat serum” value was determined as 39400 pM and the “Relative potency … rat serum” value came to 2.7 fold vs EVO2. In assay [3], this molecule gave a dissociation constant Kd of 723 pM, a Relative affinity of 2.5 fold vs EVO2, a koff of 0.000839 s⁻¹ and a kon of 1.16e+06 M⁻¹ s⁻¹. In assay [4], this molecule gave a Kd of 2020 pM, a Relative affinity of 1.8 fold vs EVO2, a koff of 0.00104 s⁻¹ and a kon of 515000 M⁻¹ s⁻¹.
